Assay results from PMC4561730 (Molecular and Cellular Biology, 2015).

Target: the molecule itself
Assay: negative-staining electron microscopy

B1: recombinant glutathione S-transferase (GST)-SAM protein (GST fusion of the mouse Bicc1 SAM domain) (domain or fragment, UniProt Q99MQ1 875-938, looked up)
chain: FKGSDLPELFSKLGLGKYTDVFQQQEIDLQTFLTLTDQDLKELGITTFGARRKMLLAISELSKN
In the case of B1, the “stoichiometry N” value is reported as about 40 units.
